# Measurements: PMC9297724, “SARS-CoV-2 Epitopes following Infection and Vaccination Overlap Known Neutralizing Antibody Sites” (Research, 2022)
# Where no end group is shown, it is not given here.
# Biological target: T1, ACE2-Fc (human, UniProt Q9BYF1)
# T1 construct: also called recombinant human ACE2; angiotensin converting enzyme-2; source: bought: GenScript
# Experiment: ELISA; ACE2-Fc (4 ug/mL) captured on goat anti-human IgG Fc coated plates; biotin-labeled S481 peptide in two-fold dilutions 2000-3.90 ng/mL in 1% BSA/0.05% PBST, 1 hour at room temperature; detected with HRP-streptavidin and TMB, absorbance at 450 nm
# Conditions: both partners purified
# T1 sequence (Q9BYF1 18-740): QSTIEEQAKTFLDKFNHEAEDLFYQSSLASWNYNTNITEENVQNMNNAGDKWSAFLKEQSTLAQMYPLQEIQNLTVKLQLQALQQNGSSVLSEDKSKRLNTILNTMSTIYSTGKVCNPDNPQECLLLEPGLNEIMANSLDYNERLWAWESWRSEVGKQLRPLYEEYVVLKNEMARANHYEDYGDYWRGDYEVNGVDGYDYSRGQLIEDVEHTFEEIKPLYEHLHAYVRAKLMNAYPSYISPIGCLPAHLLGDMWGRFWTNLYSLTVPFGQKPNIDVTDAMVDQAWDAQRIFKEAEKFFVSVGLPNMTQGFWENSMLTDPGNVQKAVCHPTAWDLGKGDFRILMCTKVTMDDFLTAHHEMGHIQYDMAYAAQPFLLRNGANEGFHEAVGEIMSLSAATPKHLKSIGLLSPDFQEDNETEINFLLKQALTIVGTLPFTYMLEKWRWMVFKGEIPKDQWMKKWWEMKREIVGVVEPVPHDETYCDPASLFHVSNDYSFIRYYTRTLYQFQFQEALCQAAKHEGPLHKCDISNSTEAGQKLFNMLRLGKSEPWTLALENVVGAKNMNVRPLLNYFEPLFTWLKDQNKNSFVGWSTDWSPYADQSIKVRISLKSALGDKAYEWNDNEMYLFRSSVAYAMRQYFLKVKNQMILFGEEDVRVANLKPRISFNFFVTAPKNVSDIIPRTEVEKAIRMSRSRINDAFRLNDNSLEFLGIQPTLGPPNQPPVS
binder,measurement,value
"NGVEGFNCYFPLQSY (also: biotin label, position not given here, also called S481 peptide) [S481-495 peptide]",binding result,binds
